Source: article PMC12221982, “The structure of the complete extracellular bacterial flagellum reveals the mechanism of flagellin incorporation” (Nature Microbiology, 2025)

Key:
[1] = biological target: the molecule itself; assay: cryo-EM structure; single-particle cryo-EM of flagellar hook tips on C. jejuni ΔflhG ΔflaAB minicells (no filament); cap-HFJ map at 6.5 Å; model of 11 FlgK, 11 FlgL and 5 FliD fitted as rigid bodies and refined
[2] = biological target: the molecule itself; assay: cryo-EM structure; single-particle cryo-EM of the same purified short flagella of S. enterica EM16009; hook-filament junction map at 2.9 Å; model of 13 FlgE, 11 FlgK, 11 FlgL and 14 FliC
[3] = biological target: T1, FliC flagellin (S. enterica) (S. enterica subsp. enterica serovar …, UniProt P06179 1-495); assay: cryo-EM structure; single-particle cryo-EM of purified short flagella of S. enterica EM16009 (buffer B: 10 mM Tris pH 8, 5 mM EDTA, 0.01% DDM); cap-filament map at 3.7 Å; model of 5 FliD and 17 FliC; conditions: both partners purified
T1 construct: FliC, phase 1 flagellin of Salmonella enterica subsp. enterica serovar Typhimurium LT2; domains D0 to D3; […]; There are 17 copies in the cap model and 14 in the HFJ model; also called filament; source: S. enterica strain EM16009, chromosomal fliC under the inducible PtetA promoter (30 min AnTc); part of purified short flagella
T1 sequence (P06179 whole entry): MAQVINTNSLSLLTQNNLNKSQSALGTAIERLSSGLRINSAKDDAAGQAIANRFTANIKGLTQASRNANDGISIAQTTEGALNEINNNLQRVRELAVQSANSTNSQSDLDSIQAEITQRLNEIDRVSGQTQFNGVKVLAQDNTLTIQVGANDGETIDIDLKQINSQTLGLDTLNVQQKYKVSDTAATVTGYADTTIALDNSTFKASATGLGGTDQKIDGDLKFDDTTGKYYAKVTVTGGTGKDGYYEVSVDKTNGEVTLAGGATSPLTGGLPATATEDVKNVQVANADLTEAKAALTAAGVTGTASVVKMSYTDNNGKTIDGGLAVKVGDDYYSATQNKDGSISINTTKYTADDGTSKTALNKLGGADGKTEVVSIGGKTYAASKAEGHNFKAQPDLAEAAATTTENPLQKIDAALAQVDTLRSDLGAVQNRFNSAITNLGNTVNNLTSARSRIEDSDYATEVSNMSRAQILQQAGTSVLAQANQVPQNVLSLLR

[4] = biological target: the molecule itself; assay: as above
[5] = biological target: T1, FliC flagellin (S. enterica); assay: cryo-EM structure; single-particle cryo-EM of the same purified short flagella of S. enterica EM16009; hook-filament junction map at 2.9 Å; model of 13 FlgE, 11 FlgK, 11 FlgL and 14 FliC; conditions: both partners purified

B1: FlgL hook-filament junction protein (C. jejuni) (natural protein)
chain: MRITNKLNFTNSVNNSMGGQSALYQISQQLASGLKIQNSYEDASTYIDNTRLEYEIKTLEQVKESTSRAQEMTQNSMKALQDMVKLLEDFKVKVTQAASDSNSQTSREAIAKELERIKESIVQLANTSVNGQYLFAGSQVANKPFDSNGNYYGDKNNINVVTGAGTESPYNIPGWDLFFKADGDYKKQISTNVSFTDNRWDLNKDPDKTKYLTGDSKWQQLIGQGYVKDNSLDADKDFEYDDSKLDFPPTTLYVQGTKPDGTSFKSAVLVKPEDTLEDVMENIGALYGNTPNNKVVEVSMNDSGQIQITDLKQGNNKLDFHAVAFTPQADTKDELKNIIEAANQEGISMNEVTNRVMQAATAAPSNGDITKLNNPVTVTINNQQFTIDLKQTDFIKSKMTDTDGNAANGADYDNVYFEKNGNTVYGNVSQVIKGSNAYATDSTKLSEVMAGDSLNGTTLNLKVNSKGGNSYDVTINLQTSTVSYPDPNNPGQTISFPIMHTNPATGNSGVVTGSNDITYGQINDIIGMFAADKIPTTTIQANNGQINNADYTQIQQLMKDSQATVDVSMDYKGRISVTDKLSSGTNIEISLSDSQSGQFPAPPFTTTSTVQNGPNFSFSANNSLTIDEPNVDIIKDLDSMIDAVLKGNMRADSESENPRNTGMQGALERLDHLADHVSKLNTTMGAYHNTIEGVNTRTSFLSVNVQSIKSNVIDVDYGEAMMNLMQVQLAYQASLKASTTISQLSLLNYM
notes: has a bulky D2 domain; model built from an AlphaFold model; Eleven subunits form the distal layer of the HFJ; also called C. jejuni FlgL; source: endogenous, C. jejuni ΔflhG ΔflaAB minicells, imaged in situ
[1]
  stoichiometry N: 11 subunits

B2: FlgK hook-filament junction protein (C. jejuni) (natural protein)
chain: MGIFGTLYTGVTGLKASEVQIATTGNNISNANATFYTRQRVVQTTNGYITTGGVQVGTGTAVESIVRLHDEYSYYKLKGASTQLEYTKYMASTLQEIAQRFPDLQNTGILQDLENYNKAWNDFASNPNENATKIALVKASQTLTESVNNTFATLDKIQKKVNDDIKNTVDEINRIGEEIATINKQIYGQEALPTEHANELRDRRDELELTLSKLVSAVASKNEINQDNRLDTTITDPGHQYNLSIEGFSIVDGINFHPLKLDYDDKNKSYSIYYETPDEKVRDLTAKISGGQLGAQLDLRGRNYSKSEGKYEDGIIQGYMDSLDTFAKTMINETNNLYASSAKSSVTSDYLSGLKGDIPLVNYDRTIQPGSFDIVIYDDKGDKKLTKTITIDVNTTMNDIMRQINANTDDNDNKNSNDDVDDHINASFSYDAKTGDGLFQINAKSGFKVAIEDKGTNFAGAFSIGGFFSGTDASDMKVKDSILNDPSTVRASSNGVDSGNDMANKIIQLQYKKVNFYNEDGTIDNLTMEEYYRKLTGKIASDGENNNVVNSSNETLYNSVYSEYQSKSGVNTNEELAALIQYQSSYGAAAKIVSTVDQMLDTLLGLKS
notes: model built from an AlphaFold model; Eleven subunits form the proximal layer of the HFJ; also called C. jejuni FlgK; source: endogenous, C. jejuni ΔflhG ΔflaAB minicells, imaged in situ
[1]
  stoichiometry N: 11 subunits

B3: FlgE hook protein (S. enterica) (natural protein)
chain: MSFSQAVSGLNAAATNLDVIGNNIANSATYGFKSGTASFADMFAGSKVGLGVKVAGITQDFTDGTTTNTGRGLDVAISQNGFFRLVDSNGSVFYSRNGQFKLDENRNLVNMQGMQLTGYPATGTPPTIQQGANPAPITIPNTLMAAKSTTTASMQINLNSTDPVPSKTPFSVSDADSYNKKGTVTVYDSQGNAHDMNVYFVKTKDNEWAVYTHDSSDPAATAPTTASTTLKFNENGILESGGTVNITTGTINGATAATFSLSFLNSMQQNTGANNIVATNQNGYKPGDLVSYQINNDGTVVGNYSNEQEQVLGQIVLANFANNEGLASQGDNVWAATQASGVALLGTAGSGNFGKLTNGALEASNVDLSKELVNMIVAQRNYQSNAQTIKTQDQILNTLVNLR
notes: FlgE, flagellar hook protein of Salmonella enterica subsp. enterica serovar Typhimurium LT2; […]; There are 13 copies in the HFJ model; source: endogenous, S. enterica strain EM16009; part of purified short flagella
[2]
  binding result: binds

B4: FliD filament cap protein (C. jejuni) (natural protein)
chain: MAFGSLSSLGFGSGVLTQDTIDKLKEAEQKARIDPYTKKIEENTTKQKDLTEIKTKLLSFQTAVSSLADATVFAKRKVVGSISDNPPASLTVNSGVALQSMNINVTQLAQKDVYQSKGLANDGGFVNAQLNGTADLTFFSNGKEYTVTVDKNTTYRDLADKINEASGGEIVAKIVNTGEKGTPYRLTLTSKETGEDSAISFYAGKKDSNGKYQKDINAEKIFDDLGWGLDVSASIDPDKDKKGYGIKDASLHIQTAQNAEFTLDGIKMFRSSNTVTDLGVGMTLTLNKTGEINFDVQQDFEGVTKAMQDLVDAYNDLVTNLNAATDYNSETGTKGTLQGISEVNSIRSSILADLFDSQVVDGTTEDANGNKVNTKVMLSMQDFGLSLNDAGTLSFDSSKFEQKVKEDPDSTESFFSNITKYEDINHTGEVIKTGSLSKYLNSNGGNTNGLEFKPGDFTIVFNNQTYDLSKNSDGTNFKLTGKTEEELLQNLANHINSKGIEGLKVKVESYNQNNVTGFRLNFSGDGSSDFSIKGDANILKELGLSDVNITSKPIEGKGIFSKLKATLQEMTGKDGSITKYDESLTNDIKSLNTSKDSTQAMIDTRYDTMANQWLQYESILNKLNQQLNTVTNMINAANNSNN
notes: has an additional domain D4; model built from an AlphaFold model; Five subunits form the pentameric cap on the HFJ; also called C. jejuni FliD; FliD cap of C. jejuni; source: endogenous, C. jejuni ΔflhG ΔflaAB minicells, imaged in situ
[1]
  stoichiometry N: 5 subunits

B5: FlgK hook-filament junction protein (S. enterica) (natural protein)
chain: MSSLINHAMSGLNAAQAALNTVSNNINNYNVAGYTRQTTILAQANSTLGAGGWIGNGVYVSGVQREYDAFITNQLRGAQNQSSGLTTRYEQMSKIDNLLADKSSSLSGSLQSFFTSLQTLVSNAEDPAARQALIGKAEGLVNQFKTTDQYLRDQDKQVNIAIGSSVAQINNYAKQIANLNDQISRMTGVGAGASPNDLLDQRDQLVSELNKIVGVEVSVQDGGTYNLTMANGYTLVQGSTARQLAAVPSSADPTRTTVAYVDEAAGNIEIPEKLLNTGSLGGLLTFRSQDLDQTRNTLGQLALAFADAFNAQHTKGYDADGNKGKDFFSIGSPVVYSNSNNADKTVSLTAKVVDSTKVQATDYKIVFDGTDWQVTRTADNTTFTATKDADGKLEIDGLKVTVGTGAQKNDSFLLKPVSNAIVDMNVKVTNEAEIAMASESKLDPDVDTGDSDNRNGQALLDLQNSNVVGGNKTFNDAYATLVSDVGNKTSTLKTSSTTQANVVKQLYKQQQSVSGVNLDEEYGNLQRYQQYYLANAQVLQTANALFDALLNIR
notes: FlgK, hook-filament junction protein (proximal layer) of Salmonella enterica subsp. enterica serovar Typhimurium LT2; […]; Eleven subunits form the proximal layer of the hook-filament junction; also called HFJ; FlgKL; source: endogenous, S. enterica strain EM16009; part of purified short flagella
[2]
  stoichiometry N: 11 subunits

B6: FliD filament cap protein (S. enterica) (natural protein)
chain: MASISSLGVGSNLPLDQLLTDLTKNEKGRLTPITKQQSANSAKLTAYGTLKSALEKFQTANTALNKADLFKSTVASSTTEDLKVSTTAGAAAGTYKINVTQLAAAQSLATKTTFATTKEQLGDTSVTSRTIKIEQPGRKEPLEIKLDKGDTSMEAIRDAINDADSGIAASIVKVKENEFQLVLTANSGTDNTMKITVEGDTKLNDLLAYDSTTNTGNMQELVKAENAKLNVNGIDIERQSNTVTDAPQGITLTLTKKVTDATVTVTKDDTKAKEAIKSWVDAYNSLVDTFSSLTKYTAVEPGEEASDKNGALLGDSVVRTIQTGIRAQFANSGSNSAFKTMAEIGITQDGTSGKLKIDDDKLTKVLKDNTAAARELLVGDGKETGITTKIATEVKSYLADDGIIDNAQDNVNATLKSLTKQYLSVSNSIDETVARYKAQFTQLDTMMSKLNNTSSYLTQQFTAMNKS
notes: FliD, flagellar filament cap protein of Salmonella enterica subsp. enterica serovar Typhimurium LT2; domains D0 to D3; […]; Five subunits form the pentameric cap at the distal end of the filament; also called FliD cap; filament cap complex; source: endogenous, S. enterica strain EM16009; part of purified short flagella (DDM lysis, ultracentrifugation)
[3]
  binding result: binds
[4]
  stoichiometry N: 5 subunits

B7: FlgL hook-filament junction protein (S. enterica) (natural protein)
chain: MRISTQMMYEQNMSGITNSQAEWMKLGEQMSTGKRVTNPSDDPIAASQAVVLSQAQAQNSQYALARTFATQKVSLEESVLSQVTTAIQTAQEKIVYAGNGTLSDDDRASLATDLQGIRDQLMNLANSTDGNGRYIFAGYKTEAAPFDQATGGYHGGEKSVTQQVDSARTMVIGHTGAQIFNSITSNAVPEPDGSDSEKNLFVMLDTAIAALKTPVEGNNVEKEKAAAAIDKTNRGLKNSLNNVLTVRAELGTQLSELSTLDSLGSDRALGQKLQMSNLVDVDWNSVISSYVMQQAALQASYKTFTDMQGMSLFQLNR
notes: FlgL, hook-filament junction protein (distal layer) of Salmonella enterica subsp. enterica serovar Typhimurium LT2; […]; Eleven subunits form the distal layer of the hook-filament junction; also called HFJ; FlgKL; source: endogenous, S. enterica strain EM16009; part of purified short flagella
[5]
  binding result: binds
[2]
  stoichiometry N: 11 subunits
